These results are taken from article PMC2187453.

By Kd is commonly meant the constant that tells how readily two partners part at equilibrium. High values mean lower affinity, low ones higher affinity.

The assay concerns the target TCGF receptor on B6.1 cells (mouse CTL line B6.1.SF.1) (mouse (endogenous in the B6.1 CTL line)). The experiment in a line: radioligand binding.

Sequence of T cell growth factor (TCGF), human, biosynthetically radiolabeled (3H-TCGF) (P60568 21-153): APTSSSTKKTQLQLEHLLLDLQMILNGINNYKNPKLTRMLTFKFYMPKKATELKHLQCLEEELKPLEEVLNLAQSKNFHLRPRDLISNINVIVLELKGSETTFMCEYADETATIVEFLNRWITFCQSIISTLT

Turning to “T cell growth factor (TCGF), human, biosynthetically radiolabeled (3H-TCGF) (from UniProt P60568 21-153) (ligand)”, the Kd worked out at 0.022 nM.
